Legend:
[1] = molecular target: T1, CXCR4 (Homo sapiens, UniProt P61073); type: cell-based; conditions: log value
[2] = molecular target: T1, CXCR4; assay: β-Arrestin-2 recruitment in Tango CXCR4-bla U2OS cells; type: cell-based; conditions: antagonist at 1 μM

T1 sequence (P61073 whole entry): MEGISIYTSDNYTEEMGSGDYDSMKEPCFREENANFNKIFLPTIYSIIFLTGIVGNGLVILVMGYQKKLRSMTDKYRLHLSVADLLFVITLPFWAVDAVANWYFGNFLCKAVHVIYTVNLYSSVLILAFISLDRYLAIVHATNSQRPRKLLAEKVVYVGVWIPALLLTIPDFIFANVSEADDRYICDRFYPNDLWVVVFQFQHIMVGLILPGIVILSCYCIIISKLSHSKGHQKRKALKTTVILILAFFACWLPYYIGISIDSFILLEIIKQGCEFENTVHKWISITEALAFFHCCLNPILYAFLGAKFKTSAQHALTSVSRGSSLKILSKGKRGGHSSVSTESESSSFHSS

inhibition of forskolin-stimulated cAMP production log IC50 [1] | effect on CXCL12 β-arrestin response [2] | Compound
−8.9 ± 0.1 M | – | CXCL12: C-X-C Motif Chemokine Ligand 12, chemokine that binds CXCR4; endogenous ligand
– | abolishes CXCL12 β-arrestin response | c1cc(CN2CCCNCCNCCCNCC2)ccc1CN1CCCNCCNCCCNCC1 [AMD3100]

— publication PMC11115308 (Biochemical pharmacology, 2023)
